Peptide exchange yield data for 67 molecules are collected here from patent US20170037110A1 (IMMATICS BIOTECHNOLOGIES, published 2017).

The target of this test is T1, HLA-A*02:01 (human).
T1 construct: monomers captured on streptavidin plates; also called MHC class I
As to the kind of experiment: UV peptide exchange ELISA. Put shortly: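 Read-out is an ELISA on the UV-exchange reaction: monomers, diluted 100-fold, are captured on streptavidin and the β2m light chain is detected with 2 μg/ml HRP antibody and TMB at 450 nm.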
On the technique in general: ELISA stands for enzyme-linked immunosorbent assay.
On to GLIEDYEALL, for which the peptide exchange yield fell in the range of 50 to 75%.

Molecule SLMEDQVLQL gave a peptide exchange yield of 50 to 75%.

Take KLYSVVSQL: the peptide exchange yield fell in the range of 20 to 50%.

Turning to KMWEELPEVV, the peptide exchange yield was 50 to 75%.

VLLEAGEGLVTI showed a peptide exchange yield of 50 to 75%.

As to LLWDVPAPSL, the peptide exchange yield lay within 50 to 75%.

Turning to MLLTKLPTI, the peptide exchange yield was 50 to 75%.

As to LLADELITV, the peptide exchange yield is 50 to 75%.

Molecule KIFDIDEAEEGV had a peptide exchange yield of 20 to 50%.

As to GLLHLTLLL, the peptide exchange yield is 50 to 75%.

KLIDDQDISISL displayed a peptide exchange yield of 50 to 75%.

Consider LLLAHIIAL, for which the peptide exchange yield was 20 to 50%.

Take FLLQHVQEL: the peptide exchange yield was in the range of 50 to 75%.

In the case of VLLQKIVSA, the peptide exchange yield was 50 to 75%.

Consider AVGPASILKEV, for which the peptide exchange yield was 20 to 50%.

SLFDGFADGLGV displayed a peptide exchange yield of 50 to 75%.

On to YLLHEKLNL, for which the peptide exchange yield was 50 to 75%.

Take ALFDAQAQV: the peptide exchange yield lay within 50 to 75%.

ALIENLTHQI registered a peptide exchange yield of 20 to 50%.

On to GLLPTPITQQASL, for which the peptide exchange yield fell in the range of 50 to 75%.

The molecule GLSDGNPSL came in with a peptide exchange yield of 20 to 50%.

Take SLMPHIPGL: the peptide exchange yield fell in the range of 50 to 75%.

TLAPGEVLRSV: the peptide exchange yield lay within 50 to 75%.

As for GLLGEKTQDLIGV, the peptide exchange yield lay within 50 to 75%.

SLIEKVTQL: the peptide exchange yield was in the range of 50 to 75%.

Regarding FLDPYCSASV, the peptide exchange yield is 20 to 50%.

The molecule RLAEVGQYEQV came in with a peptide exchange yield of 20 to 50%.

Molecule AVMESIQGV yielded a peptide exchange yield of 50 to 75%.

KLNAEVACV showed a peptide exchange yield of 50 to 75%.

In the case of KLWTGGLDNTV, the peptide exchange yield was 50 to 75%.

The molecule SVAPNLPAV yielded a peptide exchange yield of 50 to 75%.

The molecule VMYADIGGMDI showed a peptide exchange yield of 50 to 75%.

Turning to LAVHPSGVAL, the peptide exchange yield was 10 to 20%.

Turning to FLFDTKPLIV, the peptide exchange yield fell in the range of 50 to 75%.

Turning to SVAEGRALMSV, the peptide exchange yield fell in the range of 50 to 75%.

As for ILAQEQLVVGV, the peptide exchange yield was 50 to 75%.

SLAPGDVVRQV: the peptide exchange yield is 20 to 50%.

Molecule LLINSVFHV registered a peptide exchange yield of 50 to 75%.

In turn, SLWPSPEQL showed a peptide exchange yield of 20 to 50%.

On to ALLEDSCHYL, for which the peptide exchange yield was in the range of 50 to 75%.

For RVWDISTVSSV, the peptide exchange yield is 50 to 75%.

Take LLDPNVKSIFV: the peptide exchange yield lay in the range of 50 to 75%.

In the case of TLLVKVFSV, the peptide exchange yield was in the range of 50 to 75%.

LLADLLHNV yielded a peptide exchange yield of 50 to 75%.

ALQPEPIKV returned a peptide exchange yield of 20 to 50%.

For the molecule YTLPIASSIRL, the peptide exchange yield was in the range of 50 to 75%.

Regarding YVLEDLEVTV, the peptide exchange yield lay in the range of 20 to 50%.

Turning to SLFGNSGILENV, the peptide exchange yield lay within 50 to 75%.

Turning to YQIPRTFTL, the peptide exchange yield was 20 to 50%.

In turn, KLLGKVETA showed a peptide exchange yield of 50 to 75%.

Molecule NVPDSFNEV gave a peptide exchange yield of 50 to 75%.

Take VMIAGKVAVV: the peptide exchange yield lay within 50 to 75%.

LLMPIPEGLTL gave a peptide exchange yield of 50 to 75%.

In the case of GLNDRSDAV, the peptide exchange yield is 20 to 50%.

Consider SLSEIVPCL, for which the peptide exchange yield lay in the range of 50 to 75%.

Regarding TLWYRSPEV, the peptide exchange yield is 20 to 50%.

GLLEKLTAI: the peptide exchange yield fell in the range of 50 to 75%.

SMLEPVPEL showed a peptide exchange yield of 50 to 75%.

In turn, TLDITPHTV had a peptide exchange yield of 50 to 75%.

Molecule FLAEDPKVTL gave a peptide exchange yield of 50 to 75%.

For FLVEKQPPQV, the peptide exchange yield lay in the range of 50 to 75%.

For the molecule FLLEDDIHVS, the peptide exchange yield was in the range of 50 to 75%.

RLLAQVPGL yielded a peptide exchange yield of 50 to 75%.

Molecule SLNHFTHSV had a peptide exchange yield of 50 to 75%.

As to FIFSEKPVFV, the peptide exchange yield fell in the range of 50 to 75%.

FLLEPGNLEV returned a peptide exchange yield of at least 75%.

As to LLQELVLFL, the peptide exchange yield was in the range of 50 to 75%.
